Results published in US9346889 (MEDIAPHARMA S R L, dated 2016).
Changes are numbered by the printed parent chain. One block for each binder: values may come before it.

Experiments:
human ErbB3 receptor [1] = target: T1, human ErbB3 receptor (human, UniProt P21860 20-1342); experiment: hybridoma screening; reactivity with NIH/3T3 cells transfected with human ErbB3
T1 construct: whole, on cells; also called HER-3; HER3
Procedure: Four-weeks old Balb/c mice were immunized by intraperitoneal injection of live NIH/3T3 cells transfected with the human ErbB3 receptor. Seven days later, mice were given an additional intraperitoneal injection of the immunogen. After additional seven days, mice were boosted intravenously with the immunogen, and spleens were removed for cell fusion 3 days later. Somatic cell hybrids were prepared by fusion of immune splenocytes with the murine nonsecreting myeloma cell line NS-1. Hybridoma supernatants were selected on the basis of differential reactivity with LTR-ErbB3 transfected cells, but not with LTR-neo NIH/3T3. All positive hybridoma cell colonies were cloned twice by limiting dilution and further characterized.

human ErbB3 receptor [2] = target: T1, human ErbB3 receptor; experiment: immunofluorescence on IR-8 human melanoma cells
Procedure: IR-8 human melanoma cells were maintained on ice for 30 minutes in the presence of 10 µg/ml of chimeric (cMP-RM-1 #1) or humanized (hMP-RM-1 #6, hMP-RM-1 #10, hMP-RM-1 #20) MP-RM-1 antibody variants and then returned to 37° C. for 60 minutes. Cells were harvested and stained with a fluorescein-labeled goat anti-human IgG antibody and analyzed by FACS.

human ErbB3 receptor [3] = target: T1, human ErbB3 receptor; experiment: immunofluorescence on IR-8 human melanoma cells, 10 ug/ml, on ice

T1 sequence (P21860 20-1342): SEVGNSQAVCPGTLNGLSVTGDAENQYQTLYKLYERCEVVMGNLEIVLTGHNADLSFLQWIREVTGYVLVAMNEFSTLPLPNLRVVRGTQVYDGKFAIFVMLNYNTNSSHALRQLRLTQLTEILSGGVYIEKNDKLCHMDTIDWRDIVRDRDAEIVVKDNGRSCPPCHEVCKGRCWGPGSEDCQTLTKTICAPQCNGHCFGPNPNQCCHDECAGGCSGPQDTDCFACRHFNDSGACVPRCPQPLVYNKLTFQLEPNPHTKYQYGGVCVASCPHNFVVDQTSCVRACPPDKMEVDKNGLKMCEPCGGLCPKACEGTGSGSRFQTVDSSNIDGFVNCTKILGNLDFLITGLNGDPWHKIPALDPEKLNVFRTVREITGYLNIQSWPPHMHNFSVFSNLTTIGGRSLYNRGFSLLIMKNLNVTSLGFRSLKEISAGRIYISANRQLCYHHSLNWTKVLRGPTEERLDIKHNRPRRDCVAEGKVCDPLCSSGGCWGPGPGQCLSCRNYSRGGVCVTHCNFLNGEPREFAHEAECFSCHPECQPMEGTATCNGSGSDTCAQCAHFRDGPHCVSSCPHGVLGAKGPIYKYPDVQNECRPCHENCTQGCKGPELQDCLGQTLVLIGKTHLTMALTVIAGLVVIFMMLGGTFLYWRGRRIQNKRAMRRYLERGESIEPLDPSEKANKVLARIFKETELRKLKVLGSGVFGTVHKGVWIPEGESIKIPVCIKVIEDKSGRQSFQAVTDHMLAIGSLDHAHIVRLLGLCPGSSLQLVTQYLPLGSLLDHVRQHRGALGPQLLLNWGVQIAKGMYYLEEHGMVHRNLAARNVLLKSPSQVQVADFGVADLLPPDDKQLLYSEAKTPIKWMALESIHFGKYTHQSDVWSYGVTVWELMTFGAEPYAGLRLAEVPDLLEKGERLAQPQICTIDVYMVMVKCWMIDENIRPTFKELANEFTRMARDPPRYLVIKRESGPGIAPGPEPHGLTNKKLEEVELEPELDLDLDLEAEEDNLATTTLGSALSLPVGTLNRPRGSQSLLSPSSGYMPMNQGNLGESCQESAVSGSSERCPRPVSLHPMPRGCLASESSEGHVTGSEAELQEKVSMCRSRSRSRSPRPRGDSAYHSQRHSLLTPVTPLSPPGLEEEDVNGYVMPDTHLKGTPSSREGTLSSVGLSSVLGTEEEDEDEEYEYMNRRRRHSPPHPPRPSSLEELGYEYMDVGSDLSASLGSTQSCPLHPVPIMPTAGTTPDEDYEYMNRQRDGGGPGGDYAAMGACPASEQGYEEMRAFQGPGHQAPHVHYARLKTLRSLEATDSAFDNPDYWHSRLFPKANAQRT

B2: cMP-RM-1 #1 (antibody, human IgG1, kappa, V domains shown)
VH: DVQLVESGGDLVKPGGSLKLSCVVSGFTFSTYGMSWVRQTPDRRLEWVATISHGDGYTYYPDSVKGRFTISRDNAKNTLHLQMSSLKSEDTAMYYCARHGDYDDDYYAMDYWGQGTSVTFSS
VL: DIVMTQSPSSLTVIAGEKVTMSCKSSQSLLNSGNQKNYLTWYQQKPGQPPKLLIYWASTRESGVPDRFTGSGSGTDFTLTISSVQAEDLAVYYCQNEYTYPLTFGAGTKLEIKR
notes: Chimeric human IgG1/kappa, from CHO-S cells; Signal peptide left out; also called chimeric variant cMP-RM-1 #1
binding result (human ErbB3 receptor [2]): binds

B4: hMP-RM-1 #6 (antibody, human IgG1, kappa, V domains shown)
VH: B2 VH with D10G, K13Q, K19R, V23A, V24A, R43K, H80Y, S117L, F120V
VL: DIQMTQSPSSLSASVGDRVTITCKSSQSLLNSGNQKNYLTWYQQKPGKAPKLLIYWASTRESGVPSRFSGSGSGTDFTLTISSLQPEDFATYYCQNEYTYPLTFGQGTKVEIKR
notes: Humanized IgG1/kappa, from CHO-S cells; also called humanized MP-RM-1 #6; humanized MP-RM-1#6
binding result (human ErbB3 receptor [3]): binds

Second part, the binder after the results:

binding result (human ErbB3 receptor [1]): binds
B1: monoclonal antibody MP-RM-1 (antibody, V domains shown)
VH: DVQLVESGGDLVKPGGSLKLSCVVSGFTFSTYGMSWVRQTPDRRLEWVATISHGDGYTYYPDSVKGRFTISRDNAKNTLHLQMSSLKSEDTAMYYCARHGDYDDDYYAMDYWGQGTSVTVS
VL: B2 VL with I112L
notes: Murine IgG2a from hybridoma DSM ACC3018; also called DSM ACC3018

binding result (human ErbB3 receptor [2]): binds
B3: hMP-RM-1 #20 (antibody, human IgG1, kappa, V domains shown)
VH: B2 VH with V24A, S117T, F120V
VL: B2 VL with I14S, A15L, K18R, V19A, T69S, L89V, A106G, I112L
notes: Humanized IgG1/kappa, from CHO-S cells

binding result (human ErbB3 receptor [2]): binds
B5: hMP-RM-1 #10 (antibody, human IgG1, kappa, V domains shown)
VH: DVQLVESGGGLVQPGGSLRLSCAVSGFTFSTYGMSWVRQAPGKGLEWVATISHGDGYTYYPDSVKGRFTISRDNSKNTLYLQMNSLRAEDTAVYYCARHGDYDDDYYAMDYWGQGTLVTVSS
VL: B4 VL
notes: as for B3
